According to patent US7422861B2, “Oligonucleotide transfection screening method” (priority 2000, dated 2008):

System: SKOV3 (ovarian carcinoma) cells
Experiment: Apoptosis assay, annexin V and PI staining followed by FACS analysis (FIG. 1B)
Assay type: cell-based
Conditions: SKOV3 cells from the same transfections
Procedure: As a measure of cellular toxicity of the transfection agents, cells from the same transfections were stained with annexin V and PI, followed by FACS analysis (FIG. 1B). The fraction of cells positive for Annexin V, or for Annexin V and PI, are those in early or late stage apoptosis, respectively.
Apoptosis Assay. Following transfection with antisense oligonucleotides and various transfection agents, cells were gently removed from plates using 0.05% trypsin and 2 mM EDTA, washed in a buffer containing 10 mM Hepes pH7.2, 140 mM NaCl, 5 mM CaCl2, and stained with Propidium iodide at a final concentration of 1 μg/ml and Annexin-V-FLUOS (Roche Molecular Biochemicals). Cells were then analyzed for staining with each marker using a Becton Dickinson FACScan.

Row | SMILES | Staining with annexin V or PI (apoptosis)
1 | COc1ccc(CCN(CC(N)=O)C(=O)CN(CCc2ccc(OC)cc2)C(=O)CN(CCN)C(=O)CN(CCc2ccc(OC)cc2)C(=O)CN(CCc2ccc(OC)cc2)C(=O)CN(CCN)C(=O)CN(CCc2ccc(OC)cc2)C(=O)CN(CCc2ccc(OC)cc2)C(=O)CN(CCN)C(=O)CCNC(=O)O[C@H]2CC[C@@]3(C)C(=CC[C@H]4[C@@H]5CC[C@H]([C@H](C)CCCC(C)C)[C@@]5(C)CC[C@@H]43)C2)cc1 [Cholesteroid 1] | negligible staining
2 | CCCCCCCCCCCCCC(=O)OCC(COP(=O)(O)OCCNCC(=O)N(CCN)CC(=O)N(CCc1ccc(OC)cc1)CC(=O)N(CCc1ccc(OC)cc1)CC(=O)N(CCN)CC(=O)N(CCc1ccc(OC)cc1)CC(=O)N(CCc1ccc(OC)cc1)CC(=O)N(CCN)CC(=O)N(CCc1ccc(OC)cc1)CC(=O)N(CCc1ccc(OC)cc1)CC(N)=O)OC(=O)CCCCCCCCCCCCC (centres unmarked) [Lipitoid 1] | negligible staining
